The source of these data is patent publication US20140112930A1 (published 2014).

Experiment [1] concerns the target T1, Biotin-hBA2 (human, biotinylated (sites not given)).
T1 construct: hBA2 consists of two dimers; also called biotinylated hBA2; human bow-Ang2
The experiment can be described thus: blocking ELISA, biotin-hBA2 to hTie-2-His, mean of two experiments. Here is the method: (§1) The plate was then blocked with PBS (Irvine Scientific, Santa Ana, Calif.) containing 0.5% BSA (Sigma-Aldrich Corp., St. Louis, Mo.) for one hour at room temperature. […] Human, mouse or monkey Ang-2FD protein conjugated to human IgG (Ang-2FD-hFc) were added to final concentrations of 2 nM, 8 nM, or 2 nM respectively and incubated for one hour at room temperature. The antibody/Ang-2FD-Fc mixture was then added to the plate containing hTie-2-mFc and incubated for one hour at room temperature. Detection of Ang-2FD-hFc bound to hTie-2-mFc protein was determined with Horse-Radish Peroxidase (HRP) conjugated to a-human IgG antibody (Jackson Immuno Research Lab, West Grove, Pa.) and developed by standard colorimetric response using tetramethylbenzidine (TMB) substrate (BD Biosciences, San Jose, Calif.). Absorbance was read at OD₄₅₀ for 0.1 sec.
For this experiment, human Tie-2 conjugated to a histidine tag (hTie-2-His; SEQ ID NO:526) was used in a similar fashion to the hTie-2-mFc described above. Antibody concentrations from 5 nM were serially diluted three-fold. […] An average IC₅₀ value for each antibody was calculated based on two separate experiments.

The next experiment concerns the target T2, Monomeric hAng-2FD (human, UniProt O15123 282-496).
T2 construct: also called fibrinogen-like domain of human Ang2; Human Ang-2FD
T2 sequence: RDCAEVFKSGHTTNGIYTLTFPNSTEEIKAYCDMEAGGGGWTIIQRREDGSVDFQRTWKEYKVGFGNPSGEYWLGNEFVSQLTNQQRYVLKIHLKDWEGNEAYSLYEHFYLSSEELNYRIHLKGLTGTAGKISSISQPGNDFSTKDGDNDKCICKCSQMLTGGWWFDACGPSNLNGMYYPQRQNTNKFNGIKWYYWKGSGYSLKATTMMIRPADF
The experiment can be described thus: SPR, captured Ab. On the technique in general: In SPR one partner is held on a chip, and binding of the other changes the refractive index at the surface.

For experiment [2], the target named is T3, wild-type human Ang-2 (hAng-2-WT) (human, UniProt O15123 19-496).
T3 construct: called full-length wild-type; also called Full-length wild-type human Ang-2
T3 sequence: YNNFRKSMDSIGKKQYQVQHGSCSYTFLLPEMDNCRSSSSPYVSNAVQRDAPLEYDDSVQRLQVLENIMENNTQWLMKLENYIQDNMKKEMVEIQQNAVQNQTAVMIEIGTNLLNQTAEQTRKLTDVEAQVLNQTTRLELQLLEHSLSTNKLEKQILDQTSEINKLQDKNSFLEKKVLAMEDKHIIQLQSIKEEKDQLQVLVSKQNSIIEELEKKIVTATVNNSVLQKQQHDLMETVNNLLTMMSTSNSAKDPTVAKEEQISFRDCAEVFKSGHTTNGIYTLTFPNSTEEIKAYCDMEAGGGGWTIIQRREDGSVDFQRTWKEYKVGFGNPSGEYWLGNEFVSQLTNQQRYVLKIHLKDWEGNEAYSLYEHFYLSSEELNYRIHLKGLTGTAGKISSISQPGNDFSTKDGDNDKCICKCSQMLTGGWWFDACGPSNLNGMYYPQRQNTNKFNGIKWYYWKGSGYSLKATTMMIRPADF
Briefly: SPR, captured Ab.

The target in experiment [3] is T4, Dimeric Human Ang-2FD conjugated to human IgG1 (human).
T4 construct: also called Human Ang-2FD-hFc; hAng-2FD-hFc
Briefly: SPR, captured Ab, RT. An outline of the steps: (§2)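 Antibody captured on amine-coupled goat anti-mouse IgG, anti-human κ or anti-human IgG polyclonal surfaces on a CM5 chip; antigen binding and dissociation followed in real time at room temperature. KD and complex dissociation half-life derived by kinetic analysis.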

The target of experiment [4] is T5, Dimeric Mouse Ang-2FD conjugated to human IgG1 (mouse (Mus musculus); human).
T5 construct: also called Mouse Ang-2FD-hFc
The experiment can be described thus: SPR, captured Ab, RT. An outline of the steps:
as §2

For experiment [5], the target named is T6, Dimeric Monkey Ang-2FD conjugated to human IgG1 (monkey (Macca fascicularis); human).
T6 construct: also called Monkey Ang-2FD-hFc
The experiment can be described thus: SPR, captured Ab, RT. An outline of the steps: as §2

For experiment [6], the target named is T4, Dimeric Human Ang-2FD conjugated to …. Briefly: competition ELISA, 16.67 nM Ab, coated hTie-2-mFc. Here is the method:
as §1
A general note: An ELISA detects its analyte on a solid surface through an enzyme-linked reagent.

Experiment [7] concerns the target T5, Dimeric Mouse Ang-2FD conjugated to …. The experiment can be described thus: competition ELISA, 16.67 nM Ab, coated hTie-2-mFc. Here is the method: as §1
Experiment [8] has as its target T6, Dimeric Monkey Ang-2FD conjugated to …. Briefly: competition ELISA, 16.67 nM Ab, coated hTie-2-mFc. Here is the method: as §1
In experiment [9] the target is T1, Biotin-hBA2. The experiment can be described thus: blocking ELISA, biotin-hBA2 to hTie-2.
In another experiment the target is T7, Human Ang-2FD-hFc (human).
T7 construct: also called dimeric human Ang-2FD; human Ang-2FD protein conjugated to human IgG
The experiment can be described thus: blocking ELISA, 16.67 nM antibody, Ang-2FD-hFc to coated hTie-2-mFc. The procedure:
as §1

The target of another experiment is T8, Mouse Ang-2FD-hFc (mouse (Mus musculus)).
T8 construct: also called dimeric mouse Ang-2FD
The description is as above. Here is the method: as §1

B1: H1M728N (antibody, V domains shown)
VH: EVQLVESGGDLVQPGGSLRLSCTASGFTFSKYWMTWVRQAPGRGLEWVANIKEDGNEKYFLDSVKGRFTISRDNAKDLLFLQMNSLRGEDTAVYYCVRDRGIEVAGPFDYWGQGTLVTVSS
VL: DIQMTQSPSTLSASVGDRVTVTCRASQTIINWLAWYQQKPGKAPKLLISKASSLESGVPSRFSGSGSGTEFTLTISSLQPDDFATYYCQQYNRYWTFGQGTMVEIK
In the case of B1, half-maximal inhibition with Biotin-hBA2 [1] (IC50) required 0.014 nM.

B2: H2M730N (antibody, V domains shown)
VH: EVQLVESGGGLVQPGGSLRLSCAASGFAFRSYWMTWVRQAPGKGLEWVANIQQDGNDKYYVDSVKGRFTISRDNAKNSLYLQMNSLRAEDTAVYYCARDTGIAEAGPFDYWGQGTLVTVSS
VL: DIQMTQSPSTLSASVGDRVSITCRASQTIISWLAWYQQKPGKAPRLLIYKASSLESGVPSRFSGSGSGTEFTLTINSLQPDDFATYYCQQYNRYWTFGQGTKVEIK
As for B2, in the experiment with Biotin-hBA2 [1], the midpoint of inhibition, the IC50, lay at 0.0146 nM.

B3: H2M742N (antibody, V domains shown)
VH: DVQLLESGGDLVQPGGSLRLSCEASGFTFRNYVMIWVRQAPGKGLEWVSGISNSGGTTHYTDSVKGRFTISRDNSKNTLYLQINSLRAEDTAVYYCAKGYLDTSLIEGNWFDPWGQGTLVTVSS
VL: NIVMTQSPLSLPVTPGEPASISCRSSQSLLHSNGFNYLNWFLQKPGQSPQLLIYLGSNRASGVPDKFSGSGSGTDFTLNINRVEAEDVGIYFCMQTLQTPLTFGGGTKVEIK
notes: also called H1M742N
In the experiment with Biotin-hBA2 [1], B3 gave a half-maximal inhibitory concentration (IC50) of 0.00965 nM.

B4: H2M749N (antibody, V domains shown)
VH: QVQLVESGGGVVQPGRSLRLSCAASGFTFSSYGMHWVRQAPGKGLEWVAVIWYDEFNKYYADSVKGRFTISRDNSKNTLYLQMNSLRAEDTAVYYCARERESGYSYGFDYWGQGTLVTVSS
VL: EIVMTQSPATLSVSPGERATLSCRAGQSVSSNLAWYQQKPGQAPRLLIYGASTRATGIPARFSGSGSGTEFTLTISSLQSEDFAVYYCQQYNNWWTFGQGTKVEIK
notes: also called H1M749N; H1M749
As to B4, the Kd in the experiment with Monomeric hAng-2FD turned out to be 1.38 nM; in experiment [2], 0.049 nM; in experiment [3], 0.165 nM; in experiment [4], 0.529 nM; in [5], 1.5 nM. Besides, the T1/2 with Monomeric hAng-2FD amounted to 27.9 min; in [2] it was 479 min; in experiment [3] it was 42.9 min; in experiment [4] it was 25.5 min; in experiment [5], 40.9 min. Moreover, the “Percent Blocking of Ang-2FD Binding to Tie-2” value (shortened to “Percent Blocking”) in experiment [6] was determined as 99.5%; in [7], 97.3%; in experiment [8] it was 97.4%.

B5: H1M749N (antibody, V domains shown)
VH: QVQLVESGGGVVQPGRSLRLSCAASGFTFSSYGMHWVRQAPGKGLEWVAVIWYDEFNKYYADSVKGRFTISRDNSKNTLYLQMNSLRAEDTAVYYCARERESGYSYGFDYWGQGTLVTVSS
VL: EIVMTQSPATLSVSPGERATLSCRAGQSVSSNLAWYQQKPGQAPRLLIYGASTRATGIPARFSGSGSGTEFTLTISSLQSEDFAVYYCQQYNNWWTFGQGTKVEIK
notes: also called H2M749N
For B5, half-maximal inhibition in the experiment with Biotin-hBA2 [1] (IC50) was put at 0.00643 nM.

B6: H1H695P (antibody, human IgG1, V domains shown)
VH: QVQLVESGGGVVQPGRSLRLSCAASGFTFSSYGMHWVRQAPGKGLEWVAVMWYDETNKYYADSVKGRFTISRDNSKNTLYLQMNSLRAEDTAVYYCARYSGYEDYYHGMDVWGQGTTVTVS
VL: EIVMTQSPATPSVSPGERATLSCRASQSISSNLAWYQQKPGQAPRLLIYGASTRATGIPARFSGSGSGTEFTLTISSLQSEDFAVYYCQHYNNWITFGQGTRLEIK
notes: Human IgG1
For B6, the IC50 in the experiment with Biotin-hBA2 [9] came out at 0.059 nM. In addition, the “Percent Blocking” value in the experiment with Human Ang-2FD-hFc came to 98.4%; with Mouse Ang-2FD-hFc it was 97.6%.

B7: H1M724N (antibody, V domains shown)
VH: QVQLVESGGGVVQPGRSLRLSCAASGFTLSNYGMHWVRQAPGKGLEWVAVIWHDGSNTYYADSVKGRFTISRDNSKNTLYLQMNSLRAEDTAVYYCTREGLDFWSGYYPNWFDPWGQGTLVTVSS
VL: DIQMTQSPSSLSASVGDRVTITCRASQGIRNDLGWYQQKPGKAPKRLIYAASNLQGGVPSRFSGSGSGTEFTLTISSLQPEDFAAYYCLQHNIYPLTFGGGTKVEIK
In turn, B7 displayed an IC50 with Biotin-hBA2 [1] of 0.00972 nM.

B8: H1M732N (antibody, V domains shown)
VH: EVQLVESGGGLVRPGGSLRLSCAASGFTFTNAWMSWVRQAPGKGLEWIGQIKSKTDGGTIDYAAPVKGRFTVSRDDSENTLFLQMNSLKTEDTAVYYCAGNWNYVDFDYWGQGTLVTVSS
VL: DIQMTQSPSSLSASVGDRVTITCRASQDIRNDLGWYQQKPGKAPKRLIYAASSLQGGVPSRFSGSGSGTEFTLTISSLQPEDFATYYCLQHNSYPFTFGPGTKVDIK
As for B8, half-maximal inhibition in the experiment with Biotin-hBA2 [1] (IC50) was put at 0.0822 nM.

B9: H2M744N (antibody, V domains shown)
VH: QVQLVQSGVEVKKPGASVKVSCKTSGYTFSNNGFSWVRQAPGQGLEWLGWISGYNGNTNYAQKFQGRVTMTTDTSTSTAYMELRTLRSDDTAVYYCARDQDYSNFHWLDPWGQGTLVTVAS
VL: DIQMTQSPSSVSASVGDRVIITCRASQGLSSWLAWYQQKPGTAPKLLIHSASSLQTGVPSRFSGSGSGTEFALTINSLQPEDFGTYYCQQANSFPLTFGGGTRVEIK
notes: also called H1M744N; H1M744
B9: 0.0114 nM corresponded to half-maximal inhibition with Biotin-hBA2 [1] (IC50).

B10: H1H707P (antibody, human IgG1, V domains shown)
VH: QVQLVESGGGVVQPGRSLRLSCAASGFTFSSYGMHWVRQAPDKGLEWVAVKWDDGSNKYYADSVKGRFTISRDNSKNTLYLQMNSLRAEDTAVYYCAREGPYDFYSGYGAFDIWGQGTMVTVSS
VL: not shown
notes: Human IgG1
B10: the “Percent Blocking” value with Human Ang-2FD-hFc amounted to 95.1%; with Mouse Ang-2FD-hFc, 93.8%.

B11: H2M750N (antibody, V domains shown)
VH: QVKLVESGGGVVQPGRSLRVSCAASGFTFSSYGMHWVRQAPGKGLEWLAIIWYDGDNKYYSDSVKGRFTISRDNSKNTLYLQMNSLRAEDTAEYYCVRDASIASRFLDYWGQGTLVTVSS
VL: DIQMTQSPSSLSASIGDRVTITCRATQDINNYLAWFQQKPGKAPKSLIYATSNLQSGVPSKFSGSGSGTDYTLTISSLQPEDFSTYYCQQYHSYPLTFGGGTKVEIK
notes: also called H1M750N; H1M750
B11 displayed an IC50 in the experiment with Biotin-hBA2 [1] of 0.00883 nM.

B12: H2M743N (antibody, V domains shown)
VH: EVQLLESGGGLVQPGGSLRLSCAASGFTFRKYAMSWVRQAPGKGLEWVSVISVSGGNTYYADSVKGRFTISRDNSKNTLYLQLNSLRAEDTAVYYCAKDLTDIVLMVYVDYWGQGTLVTVSS
VL: DIQMTQSPSSVSASVGDRVTITCRASQDIDRWLAWYQQKPGKAPKLLIYAASSLQSGVPSRFSGSGSGTDFTLTISTLQPEDFATYYCQQANSLPFTFGGGTKVEIK
notes: also called H1M743N
On to B12, for which, in the experiment with Biotin-hBA2 [1], the IC50 came to 0.011 nM.

For orientation: IC50 means the concentration at which inhibition is half-maximal. As a reminder, the Kd is the free concentration of one partner at which half of the binding sites on the other are occupied at equilibrium, for simple one-to-one binding.
